Substrate: CCCCCCCCCCCCCCCC(=O)Oc1ccc([N+](=O)[O-])cc1
Experiment: colorimetric p-nitrophenol release, Michaelis-Menten fit
Type: biochemical, Thermomyces lanuginosus
Conditions: 45 °C, Tris-HCl pH 8.5, 10-100 mM pNPP, fermentation supernatant

B1: Thermomyces lanuginosus lipase (TLL; wt–TLL) (Thermomyces lanuginosus) (protein)
chain: EVSQDLFNQFNLFAQYSAAAYCGKNNDAPAGTNITCTGNACPEVEKADATFLYSFEDSGVGDVTGFLALDNTNKLIVLSFRGSRSIENWIGNLNFDLKEINDICSGCRGHDGFTSSWRSVADTLRQKVEDAVREHPDYRVVFTGHSLGGALATVAGADLRGNGYDIDVFSYGAPRVGNRAFAEFLTVQTGGTLYRITHTNDIVPRLPPREFGYSHSSPEYWIKSGTLVPVTRNDIVKIEGIDATGGNNQPNIPDIPAHLWYFGLIGTCL
notes: N-terminal 6xHis-tag, yeast secretion signal, secreted from Pichia pastoris GS115; fermentation supernatant used without purification (single band); 35 kDa
Protein B1 has a Km of 3.61 ± 0.10 mM.
